Experimental data from PMC10070233 (Cellular and Molecular Life Sciences: CMLS, 2023).
Values belong to the binder of their own block, whether it stands above or below them.

Assays:
Experiment in all cases: BLI; kinetics: FGFRs-Fc (25 μg/mL) immobilised on Protein-A sensors, galectins 0.2-6 μM; heterogeneous ligand (2:1) model
Details in all cases: both partners purified
[1] = target: T1, extracellular region of FGFR2 fused to the Fc fragment of human IgG1 (human, UniProt P21802 22-377, N-glycosylated (eight putative N-glycosylation sites))
T1 construct: FGFR2, extracellular region; also called FGFR2-Fc; source: CHO cells, purified (Protein A Sepharose)

[2] = target: T2, extracellular region of FGFR3 fused to the Fc fragment of human IgG1 (human, UniProt P22607 23-375, N-glycosylated (six putative N-glycosylation sites))
T2 construct: FGFR3, extracellular region; also called FGFR3-Fc; source: CHO cells, purified (Protein A Sepharose)
T2 sequence (looked up): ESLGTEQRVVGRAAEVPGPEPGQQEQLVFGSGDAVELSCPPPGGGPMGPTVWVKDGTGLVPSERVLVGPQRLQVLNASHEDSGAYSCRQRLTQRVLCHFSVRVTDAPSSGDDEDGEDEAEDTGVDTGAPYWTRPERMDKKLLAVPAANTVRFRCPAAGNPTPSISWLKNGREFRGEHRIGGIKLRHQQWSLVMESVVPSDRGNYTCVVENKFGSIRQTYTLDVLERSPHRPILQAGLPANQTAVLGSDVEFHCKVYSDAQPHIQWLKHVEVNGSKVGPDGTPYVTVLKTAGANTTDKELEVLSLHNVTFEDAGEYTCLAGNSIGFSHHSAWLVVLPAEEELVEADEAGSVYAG

[3] = target: T3, extracellular region of FGFR4 fused to the Fc fragment of human IgG1 (human, UniProt P22455 22-369, N-glycosylated (five putative N-glycosylation sites))
T3 construct: FGFR4, extracellular region; also called FGFR4-Fc; source: CHO cells, purified (Protein A Sepharose)
T3 sequence (looked up): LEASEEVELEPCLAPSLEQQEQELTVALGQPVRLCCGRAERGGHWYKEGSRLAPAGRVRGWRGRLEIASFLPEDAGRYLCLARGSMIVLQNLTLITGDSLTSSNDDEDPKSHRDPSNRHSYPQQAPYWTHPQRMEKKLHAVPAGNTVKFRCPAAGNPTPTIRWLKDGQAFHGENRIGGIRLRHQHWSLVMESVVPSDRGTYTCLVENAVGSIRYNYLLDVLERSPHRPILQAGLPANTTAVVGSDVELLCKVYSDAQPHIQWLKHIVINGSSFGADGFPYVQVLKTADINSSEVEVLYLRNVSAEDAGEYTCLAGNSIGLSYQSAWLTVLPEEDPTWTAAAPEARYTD

[4] = target: T4, extracellular region of FGFR1 fused to the Fc fragment of human IgG1 (human, UniProt P11362 22-376, N-glycosylated (eight N-glycosylation sites))
T4 construct: FGFR1, extracellular region with domains D1, D2 and D3; also called FGFR1-Fc; FGFR1.Fc; source: CHO cells, purified (Protein A Sepharose)
T4 sequence (looked up): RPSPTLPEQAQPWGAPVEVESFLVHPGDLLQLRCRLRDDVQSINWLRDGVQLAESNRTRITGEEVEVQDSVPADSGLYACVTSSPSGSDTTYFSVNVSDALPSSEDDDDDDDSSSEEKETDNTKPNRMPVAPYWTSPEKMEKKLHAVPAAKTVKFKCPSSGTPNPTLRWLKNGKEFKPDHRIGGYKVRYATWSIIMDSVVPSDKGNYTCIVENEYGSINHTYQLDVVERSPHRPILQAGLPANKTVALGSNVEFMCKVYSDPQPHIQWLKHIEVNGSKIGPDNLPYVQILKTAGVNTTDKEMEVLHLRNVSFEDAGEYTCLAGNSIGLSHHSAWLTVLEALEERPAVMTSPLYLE

T1 sequence (P21802 22-377): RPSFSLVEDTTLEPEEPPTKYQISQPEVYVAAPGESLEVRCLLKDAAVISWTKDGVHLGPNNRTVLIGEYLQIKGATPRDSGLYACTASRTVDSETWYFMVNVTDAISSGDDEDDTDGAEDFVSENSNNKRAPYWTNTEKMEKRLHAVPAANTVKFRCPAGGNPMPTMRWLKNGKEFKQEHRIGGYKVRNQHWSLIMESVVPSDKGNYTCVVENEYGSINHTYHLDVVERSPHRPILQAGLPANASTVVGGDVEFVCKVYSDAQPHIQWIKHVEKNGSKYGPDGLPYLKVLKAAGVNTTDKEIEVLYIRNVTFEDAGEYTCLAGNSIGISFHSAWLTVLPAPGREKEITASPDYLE

KD1 [1]: 3.8 µM | KD2 [1]: 141 nM | Koff1 [1]: 0.0312 s⁻¹ | Koff2 [1]: 0.00493 s⁻¹ | Kon1 [1]: 13200 M⁻¹ s⁻¹ | Kon2 [1]: 35100 M⁻¹ s⁻¹ | KD1 [2]: 174 nM | KD2 [2]: 63 nM | Koff1 [2]: 0.0289 s⁻¹ | Koff2 [2]: 0.000855 s⁻¹ | Kon1 [2]: 167000 M⁻¹ s⁻¹ | Kon2 [2]: 14500 M⁻¹ s⁻¹ | KD1 [3]: 24.3 nM | KD2 [3]: 249 nM | Koff1 [3]: 0.000929 s⁻¹ | Koff2 [3]: 0.0161 s⁻¹ | Kon1 [3]: 38700 M⁻¹ s⁻¹ | Kon2 [3]: 65100 M⁻¹ s⁻¹ | KD1 [4]: 0.95 µM | KD2 [4]: 194 nM | Koff1 [4]: 0.0225 s⁻¹ | Koff2 [4]: 0.000766 s⁻¹ | Kon1 [4]: 25200 M⁻¹ s⁻¹ | Kon2 [4]: 8820 M⁻¹ s⁻¹
B1: galectin-8 (natural protein, human, UniProt O00214 1-317, looked up)
chain: MMLSLNNLQNIIYNPVIPFVGTIPDQLDPGTLIVIRGHVPSDADRFQVDLQNGSSMKPRADVAFHFNPRFKRAGCIVCNTLINEKWGREEITYDTPFKREKSFEIVIMVLKDKFQVAVNGKHTLLYGHRIGPEKIDTLGIYGKVNIHSIGFSFSSDLQSTQASSLELTEISRENVPKSGTPQLRLPFAARLNTPMGPGRTVVVKGEVNANAKSFNVDLLAGKSKDIALHLNPRLNIKAFVRNSFLQESWGEEERNITSFPFSPGMYFEMIIYCDVREFKVAVNGVHSLEYKHRFKELSSIDTLEINGDIHLLEVRSW
notes: galectin-8, human; the C-CRD construct ends at Trp317, which fits the form of 317 residues; also called gal-8; full-length galectin-8; source: E. coli BL21 CodonPlus(DE3)-RIL, purified (Ni-NTA); not shown: His tag, N-terminal, kept

KD1 [4]: 2.6 µM | KD2 [4]: 17 nM | Koff1 [4]: 0.164 s⁻¹ | Koff2 [4]: 0.000194 s⁻¹ | Kon1 [4]: 165000 M⁻¹ s⁻¹ | Kon2 [4]: 429000 M⁻¹ s⁻¹
B2: N-terminal carbohydrate recognition domain of galectin-8 fused to the AviTag (domain or fragment, human, UniProt O00214 1-152, looked up)
chain: MMLSLNNLQNIIYNPVIPFVGTIPDQLDPGTLIVIRGHVPSDADRFQVDLQNGSSMKPRADVAFHFNPRFKRAGCIVCNTLINEKWGREEITYDTPFKREKSFEIVIMVLKDKFQVAVNGKHTLLYGHRIGPEKIDTLGIYGKVNIHSIGFS
notes: galectin-8, human, N-CRD, residues Met1-Ser152; also called gal-8N-CRD; gal-8_(N-CRD); source: E. coli BL21(DE3) pLysS, purified (Ni-NTA); not shown: AviTag, C-terminal, kept
